{"source": "paper PMC12412624", "about": "“Engineered Cas12j‐8 is a Versatile Platform for Multiplexed Genome Modulation in Mammalian Cells”", "key": {"[1]": {"test_system": "T1, dCas12j-8 D234R D234R;D369A;E567A;D658A (bacteriophage (metagenome))", "T1 sequence": "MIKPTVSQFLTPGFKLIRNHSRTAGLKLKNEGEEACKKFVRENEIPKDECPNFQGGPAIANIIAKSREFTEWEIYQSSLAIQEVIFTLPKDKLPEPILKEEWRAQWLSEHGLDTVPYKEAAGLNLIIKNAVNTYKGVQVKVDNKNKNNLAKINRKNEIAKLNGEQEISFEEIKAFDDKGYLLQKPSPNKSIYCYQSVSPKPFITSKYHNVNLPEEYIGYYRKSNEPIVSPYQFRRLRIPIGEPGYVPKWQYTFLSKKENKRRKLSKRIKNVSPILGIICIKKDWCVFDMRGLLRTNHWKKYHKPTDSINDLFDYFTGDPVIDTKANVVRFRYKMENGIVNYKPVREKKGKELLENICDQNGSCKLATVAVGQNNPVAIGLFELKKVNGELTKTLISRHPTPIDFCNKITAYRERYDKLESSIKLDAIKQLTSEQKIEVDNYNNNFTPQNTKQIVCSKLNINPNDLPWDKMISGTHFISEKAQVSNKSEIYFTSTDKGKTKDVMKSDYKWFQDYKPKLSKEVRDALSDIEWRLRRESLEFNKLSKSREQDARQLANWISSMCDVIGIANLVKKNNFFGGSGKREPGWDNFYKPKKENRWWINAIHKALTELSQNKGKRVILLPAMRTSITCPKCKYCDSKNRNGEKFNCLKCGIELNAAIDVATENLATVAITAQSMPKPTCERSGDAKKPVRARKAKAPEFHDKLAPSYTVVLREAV", "conditions": "HEK293T cells; panel 1c (compare within a panel only); scale: mean GFP / mean GFP of wild type, printed, no background subtraction"}, "[2]": {"test_system": "T2, dCas12j-8 D495R D495R;D369A;E567A;D658A (bacteriophage (metagenome))", "T2 sequence": "T1 sequence with R234D, D495R", "conditions": "HEK293T cells; panel 1c (compare within a panel only); scale: mean GFP / mean GFP of wild type, printed, no background subtraction"}, "[3]": {"test_system": "T3, dCas12j-8 E258R+D495R+D527R E258R;D495R;D527R;D369A;E567A;D658A (bacteriophage (metagenome))", "T3 sequence": "T1 sequence with R234D, E258R, D495R, D527R", "conditions": "HEK293T cells; panel 1e (compare within a panel only); scale: mean GFP / mean GFP of wild type, printed, no background subtraction"}, "[4]": {"test_system": "T4, dCas12j-8 E535R E535R;D369A;E567A;D658A (bacteriophage (metagenome))", "T4 sequence": "T1 sequence with R234D, E535R", "conditions": "HEK293T cells; panel 1c (compare within a panel only); scale: mean GFP / mean GFP of wild type, printed, no background subtraction"}}, "note": "Substitutions are numbered along the chain they refer to."}
{"sequence": "CUUUCAAGACUAAUAGAUUGCUCCUUACGAGGAGACACUCCCUAUCAGUGAUAGAG / TTNACTCCCTATCAGTGATAGAG / CTCTATCACTGATAGGGAGTNAA [TetO]", "values": [{"measurement": "binding signal", "setting": "[1]", "result": 0.475}, {"measurement": "binding signal", "setting": "[2]", "result": 1.18}, {"measurement": "binding signal", "setting": "[3]", "result": 3.63}, {"measurement": "binding signal", "setting": "[4]", "result": 0.495}]}
